# Experimental data reported in publication PMC4630614.
# Biological target: UbcA1, ubiquitin-conjugating enzyme E2 from Agrocybe aegerita (Agrocybe aegerita)
# Experiment: AUC; velocity sedimentation, Beckman XL-I, 4 °C, 40 μM protein, 50 mM Tris pH 7.5, 150 mM NaCl, 60,000 rpm, c(S) of Sedfit; monomer to dimer
substance,measurement,value
"UbcA1, ubiquitin-conjugating enzyme E2 from Agrocybe aegerita",monomer : dimer ratio (monomer : dimer),32.6
same,stoichiometry N,2
